This note sets out measurements from patent US20050142135A1, “Agents and methods for modulating interactions between gonadotropin hormones and receptors” (University of Kentucky Research Foundation, priority 2003, published 2005).

One experiment concerns the target human FSH (human) (UniProt P01215). As to the kind of experiment: photoaffinity labeling, SDS-PAGE autoradiograph.
Experiment [1] addresses LHR L^576A mutant (human) (UniProt P22888). Put plainly: 125I-hCG displacement / Scatchard. To be noted: ligand.
In experiment [2] the target is LHR T^578A mutant (human) (UniProt P22888). Put plainly: 125I-hCG displacement / Scatchard. The conditions noted are these: ligand.
Chain of LHR T^578A mutant (human) (P22888 27-699, change not shown): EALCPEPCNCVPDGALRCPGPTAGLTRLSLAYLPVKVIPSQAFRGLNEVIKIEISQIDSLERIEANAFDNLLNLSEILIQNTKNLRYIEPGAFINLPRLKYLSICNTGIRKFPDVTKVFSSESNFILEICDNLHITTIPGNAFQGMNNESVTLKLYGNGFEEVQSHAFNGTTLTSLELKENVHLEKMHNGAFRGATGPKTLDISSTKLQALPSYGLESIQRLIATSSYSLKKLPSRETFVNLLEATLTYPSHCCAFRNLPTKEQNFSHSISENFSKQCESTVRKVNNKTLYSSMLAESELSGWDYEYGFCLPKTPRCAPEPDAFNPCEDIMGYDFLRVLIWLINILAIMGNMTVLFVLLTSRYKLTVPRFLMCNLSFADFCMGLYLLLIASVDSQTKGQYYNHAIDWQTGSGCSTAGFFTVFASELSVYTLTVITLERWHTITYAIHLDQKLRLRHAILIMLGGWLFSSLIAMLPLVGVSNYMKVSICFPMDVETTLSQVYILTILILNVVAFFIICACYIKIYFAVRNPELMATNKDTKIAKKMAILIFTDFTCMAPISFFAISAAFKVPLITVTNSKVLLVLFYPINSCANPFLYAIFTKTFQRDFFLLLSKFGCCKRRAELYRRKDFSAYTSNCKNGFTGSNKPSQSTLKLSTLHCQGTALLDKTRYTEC
Experiment [3] concerns the target LHR T^580A mutant (human) (UniProt P22888). Put plainly: 125I-hCG displacement / Scatchard. The conditions noted are these: ligand.
The target in experiment [4] is LHR P^575A mutant (human) (UniProt P22888). Put plainly: 125I-hCG displacement / Scatchard. The conditions noted are these: ligand.
Chain of LHR P^575A mutant (human) (P22888 27-699, change not shown): as above
For experiment [5], the target named is LHR I^577A mutant (human) (UniProt P22888). Put plainly: 125I-hCG displacement / Scatchard. The conditions noted are these: ligand.
Chain of LHR I^577A mutant (human) (P22888 27-699, stated change not applied): as the sequence (P22888 27-699, change not shown) above
Experiment [6] addresses LHR^V574A (human) (UniProt P22888). As to the kind of experiment: 125I-hCG displacement / Scatchard. The conditions noted are these: ligand.
For experiment [7], the target named is LHR K^573A mutant (human) (UniProt P22888). Put plainly: 125I-hCG displacement / Scatchard. The conditions noted are these: ligand.
Chain of LHR K^573A mutant (human) (P22888 27-699, stated change not applied): as the sequence (P22888 27-699, change not shown) above
Experiment [8] concerns the target LHR^K583A (human) (UniProt P22888). Put plainly: 125I-hCG displacement / Scatchard. The conditions noted are these: ligand.
For experiment [9], the target named is LHR N^581A mutant (human) (UniProt P22888). As to the kind of experiment: 125I-hCG displacement / Scatchard. To be noted: ligand.
Chain of LHR N^581A mutant (human) (P22888 27-699, change not shown): as above
The target of experiment [10] is LHR V^579A mutant (human) (UniProt P22888). Put plainly: 125I-hCG displacement / Scatchard. To be noted: ligand.
Chain of LHR V^579A mutant (human) (P22888 27-699, stated change not applied): as the sequence (P22888 27-699, change not shown) above
In experiment [11] the target is LHR^S582A (human) (UniProt P22888). Put plainly: 125I-hCG displacement / Scatchard. The conditions noted are these: ligand.
Chain of LHR^S582A (human) (P22888 27-699, stated change not applied): as the sequence (P22888 27-699, change not shown) above
For experiment [12], the target named is LHR^K583A (human) (UniProt P22888). As to the kind of experiment: 125I-hCG competition binding on HEK293 cells, Scatchard.
Chain of LHR^K583A (human) (P22888 27-699, stated change not applied): as the sequence (P22888 27-699, change not shown) above
Experiment [13] concerns the target LHR^V574A (human) (UniProt P22888). Put plainly: cell-based or functional assay.
In experiment [14] the target is LHR^S582A (human) (UniProt P22888). Put plainly: cell-based or functional assay.

Chain of LHR^V574A (human) (P22888 27-699, stated change not applied): as the sequence (P22888 27-699, change not shown) above
Chain of LHR L^576A mutant (human) (P22888 27-699, change not shown): as above
Chain of LHR T^580A mutant (human) (P22888 other isoform, or with tags, fused parts or gaps mutant): as the sequence (P22888 27-699, change not shown) above, with T576A counted along it

As for ^125I-FSHR^9-40F13Bpa (peptide), the percent of FSH labeled in the experiment with human FSH (human) is greater than 50%.

As a reminder, the Kd is the constant that tells how readily two partners part at equilibrium. A low value points to a tighter complex. For the substance “hCG (from UniProt P01215 25-116; P0DN86 21-165)”, the dissociation constant Kd in experiment [1] is 430 pM; in [2], 299 pM; in [3], 623 pM; in experiment [4] it was 277 pM; in experiment [5], 746 pM; with LHR^V574A (human) [6], 240 pM. Also, the Kd in experiment [7] was 348 pM; with LHR^K583A (human) [8] it was 195 pM; in experiment [9], 350 pM; in experiment [10] it was 985 pM; with LHR^S582A (human) [11] it was 942 pM.

“hCG (from UniProt P01215 25-116; P0DN86 21-165) (ligand)” came in with a fold improvement of binding affinity over wild type in the experiment with LHR^K583A (human) [12] of 2 fold. In the experiment with LHR^V574A (human) [13], this substance returned an IP1 (cpm) of 2110 cpm; an IP1 maximum level, mutant/wild type of 0.15; an IP2 (cpm) of 180 cpm; an IP2 maximum level, mutant/wild type of 0.25. Moreover, in the experiment with LHR^V574A (human) [13], the IP3 (cpm) amounted to 80 cpm; the IP3 maximum level, mutant/wild type was 0.39; the IPt (cpm) came out at 2230 cpm; the IPt maximum level, mutant/wild type was 0.15. In the experiment with LHR^S582A (human) [14], this substance came in with an IP1 (cpm) of 15100 cpm; an IP1 maximum level, mutant/wild type of 1.09; an IP2 (cpm) of 900 cpm; an IP2 maximum level, mutant/wild type of 1.29. Also, in the experiment with LHR^S582A (human) [14], the IP3 (cpm) was found to be 386 cpm; the IP3 maximum level, mutant/wild type was 1.38; the IPt (cpm) was 16200 cpm; the IPt maximum level, mutant/wild type was found to be 1.11.
